Assay results reported in paper PMC9655642.

System: alpha-CTD (RNA polymerase alpha subunit C-terminal domain) (Bacillus licheniformis B1391)
Assay: fluorescence polarization
Conditions: FP: 25 mM Tris-HCl, 3 mM NaCl, 3 mM MgCl2, 0.1 mM DTT, room temp 20 min, 100 nM probe, 30 ug protein in 100 uL; EMSA: 10 nM probe, 25 C 20 min; footprinting: …

| Substance | binding signal (% polarization change (DPC)) |
| --- | --- |
| PtrxA-UP5-5D (five distal subsite repeats) | 35 |
| PtrxA-UP5-5P (five proximal subsite repeats) | 52 |
